One protein from paper PMC6568194, “Molecular and Biochemical Characterization of a Type II Thioesterase From the Zoonotic Protozoan Parasite Cryptosporidium parvum” (Frontiers in Cellular and Infection Microbiology, 2019) can be followed below.

Substrate in the data set: CCCCCCCCCC(=O)SCCNC(=O)CCNC(=O)[C@H](O)C(C)(C)COP(=O)(O)OP(=O)(O)OC[C@H]1O[C@@H](n2cnc3c(N)ncnc32)[C@H](O)[C@@H]1OP(=O)(O)O
Kind of data set: purified protein. The data set is classed as biochemical, Cryptosporidium parvum. Conditions: 0.1 M HEPES pH 7.4, 50 mM KCl, 50 μM DTNB, MBP-tag background subtracted, temperature not given.

B1: CpTEII (MBP-CpTEII) (Cryptosporidium parvum Iowa II) (protein)
chain: MSKSDFDKWFPSYSKVNSHLINLGSRNQPICRLLCIHGAGGSDQIFVKKDLNTGRESSNILLDYAQENGIELLVLQLPGRAGRSHEACYEDIATLINDFYPVFKSHFFGKANLTEYIELIPWVIVGHSMGGLIGFELLKRIKFEQLKDFSAKFGVTDQSGFENKIVKLLREKRIFPELFIIMSSFPPNIPEYDRPWRKNEELNDEEFKQECREWGINQNVFKKGIWEEFEKQLRCDFTMFDSFEMNLVDKIFYCSNQSLYNFMYPLGVDAQLWSASQDSKVTKDIMNKWKELLTSNGNSLDTREIDAQHNFLHDPKARKEWMQDLSTSLDKIILDLEYY
notes: entire ORF (339 aa, 39 kDa) from genomic DNA, N-terminal MBP tag kept (intact fusion assayed), C-terminal His-tag, pMAL-c2e-TEV, expressed in E. coli Rosetta 2
Usually Km stands for the concentration of substrate that gives half-maximal velocity. What is called kcat is the maximal rate divided by the concentration of active sites. Consider B1, for which the Km was 172.2 µM and the kcat was determined as 0.0253 s⁻¹.
